Experimental data taken from article PMC4570271, “Resolution of structure of PIP5K1A reveals molecular mechanism for its regulation by dimerization and dishevelled” (Nature Communications, 2015).
One block for each binder: values may come before it.

Columns and labels:
[1] = biological target: T1, GST-tagged DIX domain of mouse DVL1 (residues 1-106) with Y17D (mouse, UniProt P51141 1-106, Y17D); experiment: pull-down; GST-DIX (or GST) 0.5 μg and His-tagged PIP5K1 0.5 μg in 200 μl of 10 mM HEPES (pH 7.4), 150 mM NaCl, 0.2% Triton, 0.01% SDS, 3 mM dithiothreitol, 10% glycerol; 4 °C overnight; glutathione beads; western blotting; settings: both partners purified
T1 construct: DIX domain of mouse DVL1, residues 1-106, Y17D to eliminate DIX aggregation; A longer construct 1-200 (DIX-L) is named in the methods but tied to no experiment; also called DVL DIX; GST-DVL; source: E. coli, purified (glutathione-agarose beads, size-exclusion chromatography)
T1 sequence (looked up): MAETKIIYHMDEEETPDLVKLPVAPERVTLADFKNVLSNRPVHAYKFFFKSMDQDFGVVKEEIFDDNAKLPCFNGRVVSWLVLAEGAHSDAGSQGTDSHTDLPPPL

Dix109 = biological target: T2, Dix109; experiment: ITC; settings: chain shown with the change;
T2 chain: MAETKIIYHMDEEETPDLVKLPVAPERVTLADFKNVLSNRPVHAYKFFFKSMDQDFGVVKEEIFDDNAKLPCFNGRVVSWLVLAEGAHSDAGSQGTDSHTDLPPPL

[2] = biological target: T1, GST-tagged DIX domain of mouse DVL1 …; experiment: cell-based or functional assay

B1: zebrafish PIP5K1A kinase catalytic domain, D276A mutant (domain or fragment)
chain: MASTGETTYKKTTSSALKGAIQLGITHSVGSLSQKPERDVLMQDFEVVESIFFPSQGSSSTPGHHHGDFKFKTYAPIAFRYFREMFGIRPDDYLYSLCNEPLIELSNPGASGSLFYVSSDDEFIIKTVQHKEAEFLQTLLPGYFMNLNQNMRTLLPKFYGLYCVQADGKNIRIVVMNNLLPRAVPMHLKFDLKGSTYKRRASPKERSKGVPTYKDLDFMQDMPEGILLENAHYTALSRTMQRDCRVLQSFKIMDYSLLVGIHILHRAGEEASTAVPDTQKKGQGQKPLYCTAIESIQGESKSKTSPQPYESMGGIPAFNSKGERLLVFIGIIDILQSYRLVKKLEHSWKALLHDGDTVSVHRPSFYADRFQKFMCSTVFRKSQLKTLE
notes: kinase catalytic domain of zebrafish PIP5K1Aα, residues 49-431; C-terminal 'Leu-Glu' that precedes the His6 tag; source: E. coli BL21-CodonPlus(DE3)-RIL, purified in the same way as the wild-type protein; not shown: His6, C-terminal, kept
reduction of the interaction against the wild type [1]: > 70%

B4: zebrafish PIP5K1A kinase catalytic domain, L150A mutant (domain or fragment)
chain: MASTGETTYKKTTSSALKGAIQLGITHSVGSLSQKPERDVLMQDFEVVESIFFPSQGSSSTPGHHHGDFKFKTYAPIAFRYFREMFGIRPDDYLYSLCNEPLIEASNPGASGSLFYVSSDDEFIIKTVQHKEAEFLQTLLPGYFMNLNQNMRTLLPKFYGLYCVQADGKNIRIVVMNNLLPRAVPMHLKFDLKGSTYKRRASPKERSKGVPTYKDLDFMQDMPEGILLENDHYTALSRTMQRDCRVLQSFKIMDYSLLVGIHILHRAGEEASTAVPDTQKKGQGQKPLYCTAIESIQGESKSKTSPQPYESMGGIPAFNSKGERLLVFIGIIDILQSYRLVKKLEHSWKALLHDGDTVSVHRPSFYADRFQKFMCSTVFRKSQLKTLE
notes: kinase catalytic domain of zebrafish PIP5K1Aα, residues 49-431; C-terminal 'Leu-Glu' that precedes the His6 tag; also called Leu-150 to Ala; source: E. coli BL21-CodonPlus(DE3)-RIL, purified in the same way as the wild-type protein; not shown: His6, C-terminal, kept
change in the interaction against the wild type [1]: ≤ 20%

B5: zebrafish PIP5K1A kinase catalytic domain, F131A mutant (domain or fragment)
chain: MASTGETTYKKTTSSALKGAIQLGITHSVGSLSQKPERDVLMQDFEVVESIFFPSQGSSSTPGHHHGDFKFKTYAPIAFRYFREMAGIRPDDYLYSLCNEPLIELSNPGASGSLFYVSSDDEFIIKTVQHKEAEFLQTLLPGYFMNLNQNMRTLLPKFYGLYCVQADGKNIRIVVMNNLLPRAVPMHLKFDLKGSTYKRRASPKERSKGVPTYKDLDFMQDMPEGILLENDHYTALSRTMQRDCRVLQSFKIMDYSLLVGIHILHRAGEEASTAVPDTQKKGQGQKPLYCTAIESIQGESKSKTSPQPYESMGGIPAFNSKGERLLVFIGIIDILQSYRLVKKLEHSWKALLHDGDTVSVHRPSFYADRFQKFMCSTVFRKSQLKTLE
notes: as for B1
change in the interaction against the wild type [1]: ≤ 20%

B6: zebrafish PIP5K1A kinase catalytic domain, K426A mutant (domain or fragment)
chain: MASTGETTYKKTTSSALKGAIQLGITHSVGSLSQKPERDVLMQDFEVVESIFFPSQGSSSTPGHHHGDFKFKTYAPIAFRYFREMFGIRPDDYLYSLCNEPLIELSNPGASGSLFYVSSDDEFIIKTVQHKEAEFLQTLLPGYFMNLNQNMRTLLPKFYGLYCVQADGKNIRIVVMNNLLPRAVPMHLKFDLKGSTYKRRASPKERSKGVPTYKDLDFMQDMPEGILLENDHYTALSRTMQRDCRVLQSFKIMDYSLLVGIHILHRAGEEASTAVPDTQKKGQGQKPLYCTAIESIQGESKSKTSPQPYESMGGIPAFNSKGERLLVFIGIIDILQSYRLVKKLEHSWKALLHDGDTVSVHRPSFYADRFQKFMCSTVFRASQLKTLE
notes: as for B1
change in the interaction against the wild type [1]: ≤ 20%

B8: zebrafish PIP5K1A kinase catalytic domain, E167A mutant (domain or fragment)
chain: MASTGETTYKKTTSSALKGAIQLGITHSVGSLSQKPERDVLMQDFEVVESIFFPSQGSSSTPGHHHGDFKFKTYAPIAFRYFREMFGIRPDDYLYSLCNEPLIELSNPGASGSLFYVSSDDAFIIKTVQHKEAEFLQTLLPGYFMNLNQNMRTLLPKFYGLYCVQADGKNIRIVVMNNLLPRAVPMHLKFDLKGSTYKRRASPKERSKGVPTYKDLDFMQDMPEGILLENDHYTALSRTMQRDCRVLQSFKIMDYSLLVGIHILHRAGEEASTAVPDTQKKGQGQKPLYCTAIESIQGESKSKTSPQPYESMGGIPAFNSKGERLLVFIGIIDILQSYRLVKKLEHSWKALLHDGDTVSVHRPSFYADRFQKFMCSTVFRKSQLKTLE
notes: as for B1
change in the interaction against the wild type [1]: ≤ 20%

B9: zebrafish PIP5K1A kinase catalytic domain, E82A mutant (domain or fragment)
chain: MASTGETTYKKTTSSALKGAIQLGITHSVGSLSQKPARDVLMQDFEVVESIFFPSQGSSSTPGHHHGDFKFKTYAPIAFRYFREMFGIRPDDYLYSLCNEPLIELSNPGASGSLFYVSSDDEFIIKTVQHKEAEFLQTLLPGYFMNLNQNMRTLLPKFYGLYCVQADGKNIRIVVMNNLLPRAVPMHLKFDLKGSTYKRRASPKERSKGVPTYKDLDFMQDMPEGILLENDHYTALSRTMQRDCRVLQSFKIMDYSLLVGIHILHRAGEEASTAVPDTQKKGQGQKPLYCTAIESIQGESKSKTSPQPYESMGGIPAFNSKGERLLVFIGIIDILQSYRLVKKLEHSWKALLHDGDTVSVHRPSFYADRFQKFMCSTVFRKSQLKTLE
notes: as for B1
change in the interaction against the wild type [1]: ≤ 20%

B10: zebrafish PIP5K1A kinase catalytic domain, E149A mutant (domain or fragment)
chain: MASTGETTYKKTTSSALKGAIQLGITHSVGSLSQKPERDVLMQDFEVVESIFFPSQGSSSTPGHHHGDFKFKTYAPIAFRYFREMFGIRPDDYLYSLCNEPLIALSNPGASGSLFYVSSDDEFIIKTVQHKEAEFLQTLLPGYFMNLNQNMRTLLPKFYGLYCVQADGKNIRIVVMNNLLPRAVPMHLKFDLKGSTYKRRASPKERSKGVPTYKDLDFMQDMPEGILLENDHYTALSRTMQRDCRVLQSFKIMDYSLLVGIHILHRAGEEASTAVPDTQKKGQGQKPLYCTAIESIQGESKSKTSPQPYESMGGIPAFNSKGERLLVFIGIIDILQSYRLVKKLEHSWKALLHDGDTVSVHRPSFYADRFQKFMCSTVFRKSQLKTLE
notes: as for B1
change in the interaction against the wild type [1]: ≤ 20%

Continued, values first:

change in the interaction against the wild type [1]: ≤ 20%
B2: zebrafish PIP5K1A kinase catalytic domain, Q194A mutant (domain or fragment)
chain: MASTGETTYKKTTSSALKGAIQLGITHSVGSLSQKPERDVLMQDFEVVESIFFPSQGSSSTPGHHHGDFKFKTYAPIAFRYFREMFGIRPDDYLYSLCNEPLIELSNPGASGSLFYVSSDDEFIIKTVQHKEAEFLQTLLPGYFMNLNANMRTLLPKFYGLYCVQADGKNIRIVVMNNLLPRAVPMHLKFDLKGSTYKRRASPKERSKGVPTYKDLDFMQDMPEGILLENDHYTALSRTMQRDCRVLQSFKIMDYSLLVGIHILHRAGEEASTAVPDTQKKGQGQKPLYCTAIESIQGESKSKTSPQPYESMGGIPAFNSKGERLLVFIGIIDILQSYRLVKKLEHSWKALLHDGDTVSVHRPSFYADRFQKFMCSTVFRKSQLKTLE
notes: kinase catalytic domain of zebrafish PIP5K1Aα, residues 49-431; C-terminal 'Leu-Glu' that precedes the His6 tag; also called Q194 mutant; source: E. coli BL21-CodonPlus(DE3)-RIL, purified in the same way as the wild-type protein; not shown: His6, C-terminal, kept

reduction of the interaction against the wild type [1]: > 70%
B3: zebrafish PIP5K1A kinase catalytic domain, S78A mutant (domain or fragment)
chain: MASTGETTYKKTTSSALKGAIQLGITHSVGSLAQKPERDVLMQDFEVVESIFFPSQGSSSTPGHHHGDFKFKTYAPIAFRYFREMFGIRPDDYLYSLCNEPLIELSNPGASGSLFYVSSDDEFIIKTVQHKEAEFLQTLLPGYFMNLNQNMRTLLPKFYGLYCVQADGKNIRIVVMNNLLPRAVPMHLKFDLKGSTYKRRASPKERSKGVPTYKDLDFMQDMPEGILLENDHYTALSRTMQRDCRVLQSFKIMDYSLLVGIHILHRAGEEASTAVPDTQKKGQGQKPLYCTAIESIQGESKSKTSPQPYESMGGIPAFNSKGERLLVFIGIIDILQSYRLVKKLEHSWKALLHDGDTVSVHRPSFYADRFQKFMCSTVFRKSQLKTLE
notes: as for B1

Kd (Dix109; parent: 1.2 µM): 800 nM
other: N (Dix109; parent: 1.01 ± 0.09): 0.98
other: -TΔS (Dix109; parent: 120 ± 16 KJ mol-1): 53.8 kcal/mol
dG (Dix109; parent: -31.0 ± 3.5 KJ mol-1): -8.32 kcal/mol
other: ΔH (Dix109; parent: -151 ± 19 KJ mol-1): -62.1 kcal/mol
fold activation of the lipid kinase activity by DIX [2]: > 30 fold
B7: zebrafish PIP5K1A kinase catalytic domain, triple D84R/L86A/V291A (DLV) mutant (domain or fragment)
chain: MASTGETTYKKTTSSALKGAIQLGITHSVGSLSQKPERRVAMQDFEVVESIFFPSQGSSSTPGHHHGDFKFKTYAPIAFRYFREMFGIRPDDYLYSLCNEPLIELSNPGASGSLFYVSSDDEFIIKTVQHKEAEFLQTLLPGYFMNLNQNMRTLLPKFYGLYCVQADGKNIRIVVMNNLLPRAVPMHLKFDLKGSTYKRRASPKERSKGVPTYKDLDFMQDMPEGILLENDHYTALSRTMQRDCRALQSFKIMDYSLLVGIHILHRAGEEASTAVPDTQKKGQGQKPLYCTAIESIQGESKSKTSPQPYESMGGIPAFNSKGERLLVFIGIIDILQSYRLVKKLEHSWKALLHDGDTVSVHRPSFYADRFQKFMCSTVFRKSQLKTLE

change in the interaction against the wild type [1]: ≤ 20%
B11: zebrafish PIP5K1A kinase catalytic domain, Y140A mutant (domain or fragment)
chain: MASTGETTYKKTTSSALKGAIQLGITHSVGSLSQKPERDVLMQDFEVVESIFFPSQGSSSTPGHHHGDFKFKTYAPIAFRYFREMFGIRPDDYLASLCNEPLIELSNPGASGSLFYVSSDDEFIIKTVQHKEAEFLQTLLPGYFMNLNQNMRTLLPKFYGLYCVQADGKNIRIVVMNNLLPRAVPMHLKFDLKGSTYKRRASPKERSKGVPTYKDLDFMQDMPEGILLENDHYTALSRTMQRDCRVLQSFKIMDYSLLVGIHILHRAGEEASTAVPDTQKKGQGQKPLYCTAIESIQGESKSKTSPQPYESMGGIPAFNSKGERLLVFIGIIDILQSYRLVKKLEHSWKALLHDGDTVSVHRPSFYADRFQKFMCSTVFRKSQLKTLE
notes: kinase catalytic domain of zebrafish PIP5K1Aα, residues 49-431; the residue is printed 'Try-140' in the results and Y140A later; C-terminal 'Leu-Glu' that precedes the His6 tag; also called Try-140 to Ala; source: E. coli BL21-CodonPlus(DE3)-RIL, purified in the same way as the wild-type protein; not shown: His6, C-terminal, kept

reduction of the interaction against the wild type [1]: > 70%
B12: zebrafish PIP5K1A kinase catalytic domain, Y126A mutant (domain or fragment)
chain: MASTGETTYKKTTSSALKGAIQLGITHSVGSLSQKPERDVLMQDFEVVESIFFPSQGSSSTPGHHHGDFKFKTYAPIAFRAFREMFGIRPDDYLYSLCNEPLIELSNPGASGSLFYVSSDDEFIIKTVQHKEAEFLQTLLPGYFMNLNQNMRTLLPKFYGLYCVQADGKNIRIVVMNNLLPRAVPMHLKFDLKGSTYKRRASPKERSKGVPTYKDLDFMQDMPEGILLENDHYTALSRTMQRDCRVLQSFKIMDYSLLVGIHILHRAGEEASTAVPDTQKKGQGQKPLYCTAIESIQGESKSKTSPQPYESMGGIPAFNSKGERLLVFIGIIDILQSYRLVKKLEHSWKALLHDGDTVSVHRPSFYADRFQKFMCSTVFRKSQLKTLE
notes: as for B1
